Source: paper PMC10394140

Target: Re-PAX5 P80R (Homo sapiens, UniProt Q02548 1-391, P80R)
Experiment: EMSA

Sequence of Re-PAX5 P80R (Q02548 whole entry P80R): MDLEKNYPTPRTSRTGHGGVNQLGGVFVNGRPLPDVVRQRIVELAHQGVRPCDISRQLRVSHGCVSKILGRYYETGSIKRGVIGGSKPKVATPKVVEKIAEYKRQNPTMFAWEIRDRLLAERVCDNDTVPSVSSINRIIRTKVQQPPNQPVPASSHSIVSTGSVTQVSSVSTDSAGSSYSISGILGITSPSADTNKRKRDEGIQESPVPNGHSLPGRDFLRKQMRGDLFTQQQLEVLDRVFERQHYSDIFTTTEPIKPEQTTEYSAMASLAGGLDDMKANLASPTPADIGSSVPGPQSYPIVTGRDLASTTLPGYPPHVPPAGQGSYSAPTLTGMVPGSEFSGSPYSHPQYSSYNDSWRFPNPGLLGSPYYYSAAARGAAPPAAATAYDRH

B1: Probe-1 (GINS1 promoter site1) (dsDNA)
DNA 1: GGTGCGGTGGCTCACGCTGTAATTCC
DNA 2: GGAATTACAGCGTGAGCCACCGCACC
binding result: no binding
